In assay [1] the target is T1, SARS-CoV-2 Spike RBD (SARS-CoV-2, UniProt P0DTC2 319-541).
T1 construct: domain: RBD; also called single RBDs; Spike RBD proteins

The target in assay [2] is T1, SARS-CoV-2 Spike RBD.
In assay [3] the target is T1, SARS-CoV-2 Spike RBD. The source holds these as a separate data set.
Assay [4] addresses T1, SARS-CoV-2 Spike RBD. This is another data set of the same source.

Kd and koff data for three molecules are collected here from US20230174599A1 (University of California, published 2023).

Values joined by “and” are separate entries in the source; they are usually repeats but may differ in a detail not shown here. Equal values may be shown once. Read-outs that look alike come from different tables or passages of the source. Some results are limits rather than exact numbers.

B1: RiAFP-HTH.1 (designed binder)
chain: ASRAEARGEAMAEGHSRGSATSHANATGHADARSMSEGNAEAYTEAKGDAMATSEASGEARAQTNADGSAHSSSRTHGRADSTASAKTNYNRECGEEQAKTFLDKFNHEAEDLFYQSSLASWNYNTNITEENVQNRNNAGDKRSAFLKEQSTLAQMYGCGSGSAMAEGTSDGDAKSYASADGNASAKSMSTGHADATTNAHGTAMADSNAIGEARAETRAEGRAESSSDTDGS
notes: also called mBSP-HTH.1; RiAFP-HTH.1 construct
B1 came in with a Kd with SARS-CoV-2 Spike RBD [1] of 0.7 to 1.6 nM.

B2: RiAFP-HTH.2 (designed binder)
chain: ASRAEARGEAMAEGHSRGSATSHANATGHADARSMSEGNAEAYTEAKGDAMATSEASGEARAQTNADGSAHSSSRTHGRADSTASAKGGKALNDKEAKNKAILNLEEIEEQAKTFLDKFNHEAEDLFYQSSLASWNYNTNITEENVQNMNNAGDKWSAFLKEQSTLAQMYQNEIKRKSEKQEDLKKEMLELEKLGGAMAEGTSDGDAKSYASADGNASAKSMSTGHADATTNAHGTAMADSNAIGEARAETRAEGRAESSSDTDGS
notes: also called mBSP-HTH.2; RiAFP-.2
As for B2, the Kd with SARS-CoV-2 Spike RBD [2] is ≥ 41 nM and ≤ 84 nM and 28 nM; in the assay with SARS-CoV-2 Spike RBD [3], 2.1 nM; with SARS-CoV-2 Spike RBD [1] it was 2.1 to 28 nM.

B3: polymeric RiAFP-HTH.2 fixed to nitrocellulose (designed binder)
chain: B2 chain
B3: in the assay with SARS-CoV-2 Spike RBD [4], the Kd is 0.006 to 0.009 nM and ≤ 0.01 nM; the off-rate (koff) was in the range of 6e-07 to 9e-07 s⁻¹.

Broadly, the Kd is the constant that tells how readily two partners part at equilibrium. A higher Kd goes with lower affinity. A word on the koff: it is a measure of how fast the partners let go of each other. Read a low koff as slow dissociation.
